This series can be described thus: soluble on expression in E. coli; label from the status in PepcDB or PDB records.
For the sequence “MGEYERTVFTRRITGVETEYGITCVGDNSRRRLGADEAARYMFRPVVEEWGSSNVFIPNGARLYLDVGSHPEYASAECDSLSQLIAYDRAGDKIVDQLAQRAETALATEGIGGRVYLFKNNLDSLGNSYGCHENYLVSRDVVLKTLGRQLLPFLITRQLICGAGSIQDGQFQVSQRADHVWEGVSSATTRSRPIINTRDEPHADSHRFRRLHVIVGDSNMSETTCALKIGSTQLVLEMIEAGALSHDLELSNEIAAIREISRDITGMAPVPLKAGTSMPAIEIQRRYAEKALCWLEQRGDTEGTPNAEMHKVVSLWLDTISAIESNDLQALSRDIDWAIKLSLLRRAQRRIGCSESDFTHPKLAQLDLAYHDIRAGRGVFPVLESKQLVNRWINDTDIEQATRIAPSTTRAALRGEFLTAAKKLQAPISADWLRLKVNRPEPQIIELTDPFENTDDRVDQLISYMRNHAASYSTDTAIS”, the “soluble on expression in E. coli” value is on record as “not soluble”.

Turning to “MGSDKIHHHHHHMEFTSLWQEFARISEVEAIALGGSRATGNYDETSDYDLYIYCSSIPDEATRLTILKSFCSYIEIGNHFWELEDDCTLMSGQDIDILYRDINQIRDELVDVVERCIIQNAYTTCLWHNVLHSKILYDSDDKLKCIVNRFDINYPQKLKQTILSHHMNLLTGHLPSYDKQIIKAVMRKDIVSFNHRVTAFLETYFDLIFALNMLTHPGEKRMIAYAEQNAQSLPNHFQKNIERLIYGTTCHPYDIQDILNDILNELTPLLHDSIG”, the “soluble on expression in E. coli” value is recorded as “not soluble”.

For “MTDLVAVWDVALSDGVHKIEFEHGTTSGKRVVYVDGKEEIRREWMFKLVGKETFFVGAAKTKATINIDAISGFAYEYTLEIDGKSLKKYMENRSKTTSTWVLRLDGEDLRVVLEKDTMDVWCNGQKMETAGEFVDDGTETHFSVGNHGCYIKAVSSRKRKEGIIHTLIVDNREIPELTQ”, the “soluble on expression in E. coli” value was “soluble”.

On to “MKLKGKGIGKVVVEGEVIVSRKPLSFLGGVDPETGTITDPESDIKGESITGKILVFPKGKGSTVGSYILYALSKNGKGPKAIIVEEAEPIVTAGAIISGIPLITNVDISKLKTGMRVRINPQEGEVEILAEGNLLEHHHHHH”, for which the “soluble on expression in E. coli” value is on record as “not soluble”.

For “MSLQLADAQADLPYIHGFSAAEQARLVRQARFSEAMVYRDVDFSGVQKLLEVGCGVGAQTEILLRRFPDVGITGLDFSQRQLAVARQRLQGSPYHDRATLLHMDAEDLDFPPASFDGAFLCWILEHVHSPERVLAEVRRVLKPGARLYATEAMNATFFLAPYSANLQQYWLAFNDHQLSVGGDPFVGAKLGNILMRLGFRHVETKVKTWHLDSREPHRRQQVLDYWAELLLSAADQLIEAGRVDAELVDSMTRELRLLRSNPELVFFYSFMQASAVVEGHHHHHH”, the “soluble on expression in E. coli” value is recorded as “soluble”.

Take “MGSDKIHHHHHHMKIAQIAPLAERVPPKLYGGTERIVHCLTEELVRLGHDVTLFASGDSLTSAELVPCCDVALRLNPRVQDFLPHHIAMLEEVRRRAPQFDVLHFHIEFLHFPLIRDFADRTVTTLHTRLDLPDLQPFYLAFPDIPLVSISQHQRVPMPPVNWRGTVLHGLDPTVLPLREGRSDEYLAFLGRIAPEKGPDRAIEIAARSGMPLKIAAKIDAQDRAYWEAVVEPLIASHSNVEYIGEIDEGQKADFLGNAAALLFPINWPEPFGLVMIEAMACGTPVLAFRYGSAPEVIDDGVSGILVDTVEQAVESLGRVLELDRRKVRESFETRFTTERMTRDYLDIYQNLPGVLRQTASTPQGEAKKVGLEAA”: the “soluble on expression in E. coli” value was “not soluble”.

Take “MVRILPIILSALSSKLVASTILHSSIHSVPSGGEIISAEDLKELEISGNSICVDNRCYPKIFEPRHDWQPILPGQELPGGLDIRINMDTGLKEAKLNDEKNVGDNGSHELIVSSEDMKASPGDYEFSSDFKEMRNIIDSNPTLSSQDIARLEDSFDRIMEFAHDYKHGYKIITHEFALLANLSLNENLPLTLRELSTRVITSCLRNNPPVVEFINESFPNFKSKIMAALSNLNDSNHRSSNILIKRYLSILNELPVTSEDLPIYSTVVLQNVYERNNKDKQLQIKVLELISKILKADMYENDDTNLILFKRNAENWSSNLQEWANEFQEMVQNKSIDELHTRTFFDTLYNLKKIFKSDITINKGFLNWLAQQCKARQSNLDNGLQERDTEQDSFDKKLIDSRHLIFGNPMAHRIKNFRDEL”: the “soluble on expression in E. coli” value was “soluble”.

For “MAYSLTRKLLKDWKYFMRHPEKTQGLFHVRPHDSDLHLWHVVMYEPRTSLEVYLLLYIGGNDQDPYIIMKCLSPNCCFPINRTVSMTHLNYLLLKDLGLQDLLFHIWQPLFHIQATEDLQYSPSTVKFNRAWNRIIYKDFKSYFPELIGTLQPGDYSIVKSYSKNHNISNSNGGSVNEFMSSYNAQSHTFHAQDNSKNPYTNSSIGKSSMLSTLNNNNVNKRTHDYNAIDFMTKNLLACDDDSIHPVVSSKRSRTLACPDETNDNRGSEHYTKRKKI”, the “soluble on expression in E. coli” value is reported as “soluble”.

The values are drawn from the DeepSol protein solubility set.
